According to article PMC10710061:

Columns and labels:
[1] = target: ZnF domain of Arabidopsis thaliana SPL5, residues 60 to 127 (Arabidopsis thaliana) (UniProt Q9S758); assay: ITC; 200 μM SAP05 from the syringe into 20 μM SPL5^ZnF in the cell; 25 °C, 20 mM HEPES pH 7.5, 150 mM NaCl; one-site binding model
[2] = target: SAP05 H58A T60W (purified, for ITC) (Aster Yellows phytoplasma strain Witches Broom (AYWB)); assay: ITC; SPL5^ZnF from the syringe (250 μM for wild-type SAP05, 200 μM for the SAP05–Rpn10^vWA complex or SAP05 mutants) into 20 μM partner in the cell; 25 °C, 20 mM HEPES pH 7.5, 150 mM NaCl; one-site binding model
[3] = target: SAP05 D66E (purified, for ITC) (Aster Yellows phytoplasma strain Witches Broom (AYWB)); assay: as above
[4] = target: SAP05 of Aster Yellows phytoplasma strain Witches Broom (AYWB), residues 33 to 135 (Aster Yellows phytoplasma strain Witches Broom (AYWB)); assay: as above
[5] = target: SAP05–Rpn10^vWA complex (Aster Yellows phytoplasma strain Witches Broom (AYWB) | Arabidopsis thaliana) (UniProt P55034); assay: as above

Molecule	Kd [1]	stoichiometry N [1]	Kd [2]	Kd [3]	Kd [4]	Kd [5]	stoichiometry N [5]
SAP05 of Aster Yellows phytoplasma strain Witches Broom (AYWB), residues 33 to 135 (natural protein)	450 nM	1	–	–	–	–	–
ZnF domain of Arabidopsis thaliana SPL5, residues 60 to 127 (domain or fragment) SRLCQVDRCTVNLTEAKQYYRRHRVCEVHAKASAATVAGVRQRFCQQCSRFHELPEFDEAKRSCRRRL	–	–	3600 nM	17700 nM	520 nM	650 nM	1
